Literature values in article PMC4752257.

Molecular target: IL-4R alpha (Homo sapiens) (UniProt P24394)
UniProt P24394, sequence (P24394 26-232): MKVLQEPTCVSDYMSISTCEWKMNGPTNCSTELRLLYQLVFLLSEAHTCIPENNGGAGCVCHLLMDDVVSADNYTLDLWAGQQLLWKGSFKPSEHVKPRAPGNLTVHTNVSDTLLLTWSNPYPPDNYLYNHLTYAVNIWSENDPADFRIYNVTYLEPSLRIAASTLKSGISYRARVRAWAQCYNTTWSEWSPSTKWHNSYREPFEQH

Kd: 0.6 nM
Substance: IL-4 (from UniProt P05112)
